Measurements reported in the array DNA melting data of Ke et al..

Experiment: melting temperature; melt of duplexes
Conditions: sodium 0.0675 M; strand 1 µM

Substance | Tm [°C]
CGACGTGCAAAATGTGCTG+CAGCACATACAGCACGTCG ((((((((...((((((((+))))))))...)))))))) | 49.7
CGACGTGCAAAATGTGCTG+CAGCACATACCGCACGTCG ((((((((...((((((((+))))))))...)))))))) | 48.1
CGACGTGCAAAATGTGCTG+CAGCACATAGAGCACGTCG ((((((((...((((((((+))))))))...)))))))) | 48.9
CGACGTGCAAAATGTGCTG+CAGCACATATGGCACGTCG ((((((((.(.((((((((+)))))))).).)))))))) | 50.3
CGACGTGCAAAATGTGCTG+CAGCACATCAGGCACGTCG ((((((((...((((((((+))))))))...)))))))) | 49.4
CGACGTGCAAAATGTGCTG+CAGCACATCTAGCACGTCG ((((((((.(.((((((((+)))))))).).)))))))) | 49.5
CGACGTGCAAAATGTGCTG+CAGCACATCTCGCACGTCG ((((((((.(.((((((((+)))))))).).)))))))) | 48.6
CGACGTGCAAAATGTGCTG+CAGCACATCTTGCACGTCG ((((((((((.((((((((+)))))))).)))))))))) | 54
CGACGTGCAAAATGTGCTG+CAGCACATGACGCACGTCG ((((((((...((((((((+))))))))...)))))))) | 51.4
CGACGTGCAAAATGTGCTG+CAGCACATGAGGCACGTCG ((((((((...((((((((+))))))))...)))))))) | 52.5
CGACGTGCAAAATGTGCTG+CAGCACATGCAGCACGTCG ((((((((...((((((((+))))))))...)))))))) | 53.8
CGACGTGCAAAATGTGCTG+CAGCACATGCGGCACGTCG ((((((((...((((((((+))))))))...)))))))) | 51.2
CGACGTGCAAAATGTGCTG+CAGCACATGGAGCACGTCG ((((((((...((((((((+))))))))...)))))))) | 53.9
CGACGTGCAAAATGTGCTG+CAGCACATGGCGCACGTCG ((((((((...((((((((+))))))))...)))))))) | 54
CGACGTGCAAAATGTGCTG+CAGCACATGTAGCACGTCG ((((((((.(.((((((((+)))))))).).)))))))) | 53.1
CGACGTGCAAAATGTGCTG+CAGCACATGTTGCACGTCG ((((((((((.((((((((+)))))))).)))))))))) | 56.4
CGACGTGCAAAATGTGCTG+CAGCACATTAAGCACGTCG ((((((((..(((((((((+)))))))))..)))))))) | 52.4
CGACGTGCAAAATGTGCTG+CAGCACATTACGCACGTCG ((((((((..(((((((((+)))))))))..)))))))) | 51.5
CGACGTGCAAAATGTGCTG+CAGCACATTCCGCACGTCG ((((((((..(((((((((+)))))))))..)))))))) | 50.6
CGACGTGCAAAATGTGCTG+CAGCACATTGGGCACGTCG ((((((((..(((((((((+)))))))))..)))))))) | 54
CGACGTGCAAAATGTGCTG+CAGCACATTTCGCACGTCG ((((((((.((((((((((+)))))))))).)))))))) | 55.4
CGACGTGCAAAATGTGCTG+CAGCACATTTGGCACGTCG ((((((((.((((((((((+)))))))))).)))))))) | 57.6
CGACGTGCAACATGTGCTG+CAGCACATAAGGCACGTCG ((((((((...((((((((+))))))))...)))))))) | 47.8
CGACGTGCAACATGTGCTG+CAGCACATACAGCACGTCG ((((((((...((((((((+))))))))...)))))))) | 47.9

Substance | Tm [°C]
CGACGTGCAACATGTGCTG+CAGCACATAGGGCACGTCG ((((((((...((((((((+))))))))...)))))))) | 49.1
CGACGTGCAACATGTGCTG+CAGCACATAGTGCACGTCG (((((((((..((((((((+))))))))..))))))))) | 48.9
CGACGTGCAACATGTGCTG+CAGCACATATGGCACGTCG ((((((((.(.((((((((+)))))))).).)))))))) | 49.2
CGACGTGCAACATGTGCTG+CAGCACATCACGCACGTCG ((((((((...((((((((+))))))))...)))))))) | 46.5
CGACGTGCAACATGTGCTG+CAGCACATCCAGCACGTCG ((((((((...((((((((+))))))))...)))))))) | 47.1
CGACGTGCAACATGTGCTG+CAGCACATCCGGCACGTCG ((((((((...((((((((+))))))))...)))))))) | 47.7
CGACGTGCAACATGTGCTG+CAGCACATCTAGCACGTCG ((((((((.(.((((((((+)))))))).).)))))))) | 48.2
CGACGTGCAACATGTGCTG+CAGCACATGAAGCACGTCG ((((((((..(((((((((+)))))))))..)))))))) | 54.3
CGACGTGCAACATGTGCTG+CAGCACATGCAGCACGTCG ((((((((..(((((((((+)))))))))..)))))))) | 53.9
CGACGTGCAACATGTGCTG+CAGCACATGCTGCACGTCG (((((((((.(((((((((+))))))))).))))))))) | 56.9
CGACGTGCAACATGTGCTG+CAGCACATGGTGCACGTCG (((((((((.(((((((((+))))))))).))))))))) | 60
CGACGTGCAACATGTGCTG+CAGCACATGTGGCACGTCG ((((((((.((((((((((+)))))))))).)))))))) | 59.3
CGACGTGCAACATGTGCTG+CAGCACATTACGCACGTCG ((((((((...((((((((+))))))))...)))))))) | 47.9
CGACGTGCAACATGTGCTG+CAGCACATTCTGCACGTCG (((((((((..((((((((+))))))))..))))))))) | 50.1
CGACGTGCAACATGTGCTG+CAGCACATTGCGCACGTCG ((((((((...((((((((+))))))))...)))))))) | 48.8
CGACGTGCAACATGTGCTG+CAGCACATTGGGCACGTCG ((((((((...((((((((+))))))))...)))))))) | 50.1
CGACGTGCAACATGTGCTG+CAGCACATTTCGCACGTCG ((((((((.(.((((((((+)))))))).).)))))))) | 49
CGACGTGCAAGATGTGCTG+CAGCACATAACGCACGTCG ((((((((...((((((((+))))))))...)))))))) | 48.6
CGACGTGCAAGATGTGCTG+CAGCACATAGTGCACGTCG (((((((((..((((((((+))))))))..))))))))) | 48.6
CGACGTGCAAGATGTGCTG+CAGCACATATGGCACGTCG ((((((((.(.((((((((+)))))))).).)))))))) | 53
CGACGTGCAAGATGTGCTG+CAGCACATCACGCACGTCG ((((((((..(((((((((+)))))))))..)))))))) | 53.8
CGACGTGCAAGATGTGCTG+CAGCACATCCGGCACGTCG ((((((((..(((((((((+)))))))))..)))))))) | 54.9
CGACGTGCAAGATGTGCTG+CAGCACATCCTGCACGTCG (((((((((.(((((((((+))))))))).))))))))) | 56.5
CGACGTGCAAGATGTGCTG+CAGCACATCGAGCACGTCG ((((((((..(((((((((+)))))))))..)))))))) | 57.9

Substance | Tm [°C]
CGACGTGCAAGATGTGCTG+CAGCACATCGGGCACGTCG ((((((((..(((((((((+)))))))))..)))))))) | 57
CGACGTGCAAGATGTGCTG+CAGCACATCTTGCACGTCG (((((((((((((((((((+))))))))))))))))))) | 63.8
CGACGTGCAAGATGTGCTG+CAGCACATGAAGCACGTCG ((((((((...((((((((+))))))))...)))))))) | 52.2
CGACGTGCAAGATGTGCTG+CAGCACATGATGCACGTCG (((((((((..((((((((+))))))))..))))))))) | 52.3
CGACGTGCAAGATGTGCTG+CAGCACATGCAGCACGTCG ((((((((...((((((((+))))))))...)))))))) | 52.3
CGACGTGCAAGATGTGCTG+CAGCACATGCGGCACGTCG ((((((((...((((((((+))))))))...)))))))) | 50.2
CGACGTGCAAGATGTGCTG+CAGCACATGCTGCACGTCG (((((((((..((((((((+))))))))..))))))))) | 51.1
CGACGTGCAAGATGTGCTG+CAGCACATGGAGCACGTCG ((((((((...((((((((+))))))))...)))))))) | 51.6
CGACGTGCAAGATGTGCTG+CAGCACATGTGGCACGTCG ((((((((.(.((((((((+)))))))).).)))))))) | 52.8
CGACGTGCAAGATGTGCTG+CAGCACATTCAGCACGTCG ((((((((...((((((((+))))))))...)))))))) | 50.7
CGACGTGCAAGATGTGCTG+CAGCACATTTAGCACGTCG ((((((((.(.((((((((+)))))))).).)))))))) | 51.1
CGACGTGCAAGATGTGCTG+CAGCACATTTGGCACGTCG ((((((((.(.((((((((+)))))))).).)))))))) | 52.5
CGACGTGCAATATGTGCTG+CAGCACATAAAGCACGTCG ((((((((..(((((((((+)))))))))..)))))))) | 52
CGACGTGCAATATGTGCTG+CAGCACATAACGCACGTCG ((((((((..(((((((((+)))))))))..)))))))) | 50.7
CGACGTGCAATATGTGCTG+CAGCACATAAGGCACGTCG ((((((((..(((((((((+)))))))))..)))))))) | 51.9
CGACGTGCAATATGTGCTG+CAGCACATACGGCACGTCG ((((((((..(((((((((+)))))))))..)))))))) | 49.4
CGACGTGCAATATGTGCTG+CAGCACATAGAGCACGTCG ((((((((..(((((((((+)))))))))..)))))))) | 52.7
CGACGTGCAATATGTGCTG+CAGCACATAGTGCACGTCG (((((((((.(((((((((+))))))))).))))))))) | 53.9
CGACGTGCAATATGTGCTG+CAGCACATATGGCACGTCG ((((((((.((((((((((+)))))))))).)))))))) | 55.6
CGACGTGCAATATGTGCTG+CAGCACATCACGCACGTCG ((((((((...((((((((+))))))))...)))))))) | 46.8
CGACGTGCAATATGTGCTG+CAGCACATCCGGCACGTCG ((((((((...((((((((+))))))))...)))))))) | 48.5
CGACGTGCAATATGTGCTG+CAGCACATCCTGCACGTCG (((((((((..((((((((+))))))))..))))))))) | 49.6
CGACGTGCAATATGTGCTG+CAGCACATCGTGCACGTCG (((((((((..((((((((+))))))))..))))))))) | 45.9
CGACGTGCAATATGTGCTG+CAGCACATCTAGCACGTCG ((((((((.(.((((((((+)))))))).).)))))))) | 49.2
